Experimental findings from paper PMC6717765, “p32 is a negative regulator of p53 tetramerization and transactivation” (Molecular Oncology, 2019) are described below.

B1: GST-p53 tetramerization domain (residues 328-368) (domain or fragment, UniProt P04637 328-368, looked up)
chain: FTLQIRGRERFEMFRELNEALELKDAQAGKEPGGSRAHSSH
notes: source: bacterially produced, purified on glutathione-Sepharose 4B beads
B2: His-tagged p32 (wild type, recombinant) (natural protein, UniProt Q07021 74-282, looked up)
chain: LHTDGDKAFVDFLSDEIKEERKIQKHKTLPKMSGGWELELNGTEAKLVRKVAGEKITVTFNINNSIPPTFDGEEEPSQGQKVEEQEPELTSTPNFVVEVIKNDDGKKALVLDCHYPEDEVGQEDEAESDIFSIREVSFQSTGESEWKDTNYTLNTDSLDWALYDHLMDFLADRGVDNTFADELVELSTALEHQEYITFLEDLKSFVKSQ
notes: p32 (gC1qR/C1QBP/HABP1); also called His-p32; mature p32
B3: GST-p32 (233-250) (domain or fragment, UniProt Q07021 233-250, looked up)
chain: WALYDHLMDFLADRGVDN
notes: source: expressed and purified on glutathione-Sepharose 4B beads
B4: GST-p32 C-terminal domain (residues 233-282) (domain or fragment, UniProt Q07021 233-282, looked up)
chain: WALYDHLMDFLADRGVDNTFADELVELSTALEHQEYITFLEDLKSFVKSQ
notes: as for B3
B5: GST-p32 (233-250) D249A (domain or fragment, UniProt Q07021 233-250, looked up)
chain: WALYDHLMDFLADRGVAN
notes: also called GST-p32 D249A; source: expressed and purified on glutathione-Sepharose 4B beads

Common to all, as to conditions: both partners purified
For experiment [1], the target named is B2. Kind of experiment: pull-down; GST or GST-p53 fusions immobilised on glutathione-Sepharose beads, His-tagged p32 in solution; overnight at 4 °C; 20 mM Tris/HCl pH 7.3, 0.2 M KCl, 0.2 mM EDTA, 20% glycerol, 0.01% Nonidet P-40; blot with anti-His.
The target in experiment [2] is T1, GST-p53 (UniProt P04637 1-393).
T1 construct: p53; also called GST-fused p53; source: bacterially produced, purified on glutathione-Sepharose 4B beads
Described as above.

In experiment [3] the target is T2, FLAG-tagged p53 (recombinant) (UniProt P04637 1-393).
T2 construct: p53; also called FLAG-p53; source: E. coli Rosetta 2 (DE3) pLysS, purified (anti-FLAG M2 agarose)
Kind of experiment: cross-linking; purified FLAG-p53 with or without p32 (molar ratio 1:1, 1:2, 1:4) overnight at 4 °C; 10 mM Tris/HCl pH 7.5, 50 mM NaCl, 0.1 mM EDTA, 1 mM DTT, 5% glycerol; 0.01% glutaraldehyde 10 min at 22 °C; SDS/PAGE and anti-FLAG blot for monomers, dimers, tetramers.

In experiment [4] the target is T2, FLAG-tagged p53 (recombinant). Kind of experiment: pull-down; GST or GST-p32 fusions immobilised on glutathione-Sepharose beads, FLAG-tagged p53 in solution; overnight at 4 °C; 20 mM Tris/HCl pH 7.3, 0.2 M KCl, 0.2 mM EDTA, 20% glycerol, 0.01% Nonidet P-40; blot with anti-FLAG.

T2 sequence (P04637 whole entry): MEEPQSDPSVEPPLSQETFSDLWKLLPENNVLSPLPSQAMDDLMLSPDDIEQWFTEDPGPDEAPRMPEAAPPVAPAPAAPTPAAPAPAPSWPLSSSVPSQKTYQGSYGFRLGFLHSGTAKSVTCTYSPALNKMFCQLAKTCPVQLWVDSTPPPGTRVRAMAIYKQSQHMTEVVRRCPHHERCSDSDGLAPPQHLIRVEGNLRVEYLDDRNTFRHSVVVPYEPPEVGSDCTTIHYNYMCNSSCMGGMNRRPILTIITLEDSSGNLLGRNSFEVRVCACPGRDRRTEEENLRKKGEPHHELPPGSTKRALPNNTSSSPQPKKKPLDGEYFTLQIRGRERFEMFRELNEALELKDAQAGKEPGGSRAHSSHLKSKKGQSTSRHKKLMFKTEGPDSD
T1 sequence (P04637 whole entry, the tested form may be a part): as the sequence (P04637 whole entry) above

Take B1: the binding result in experiment [1] is “binds”. Take B2: the binding result in experiment [2] and in experiment [3] was “binds” throughout. Regarding B3, in experiment [4], the binding result is recorded as “binds”. Still for that read-out and setting: as for B4, the entry is “binds”; as for B5, “binds”.
